Results reported in paper PMC7895908.

Experiments:
Test in all cases: ITC
YFP = YFP (UniProt P42212)
[1] = molecular target: mEGFP (monomeric enhanced GFP) (UniProt P42212)
sfGFP (super folder GFP) = sfGFP (super folder GFP) (UniProt P42212)
mVenus = mVenus (UniProt P42212)

## GGGAGCUUCUGGACUGCGAUGGGAGCACGAAACGUCGUGGCGCAAUUGGGUGGGGAAAGUCCUUAAAAGAGGGCCACCACAGAAGCUCCC [free RNA aptamer against GFP family]
YFP
  Kd: 4 nM
[1]
  Kd: 5 nM
sfGFP (super folder GFP)
  Kd: 13 nM
mVenus
  Kd: 5 nM
